Experiments:
human CD33 [1] = target: T1, human CD33 (human, UniProt P20138 18-259, limits assumed); assay: SPR (BIAcore), Fab over CD33 on C1 chip
T1 construct: Human CD33 immobilized on the BLI sensor tip or the BIAcore C1 chip; also called Siglec-3
Experimental: The affinity parameters for 10 of the 88 humanized antibodies (AB-H1, AB-H3, AB-H6, AB-H11, AB-H22, AB-H24, AB-H26, AB-H63, AB-H64, and AB-H71) were measured in a separate experiment by a more sensitive technique, surface plasmon resonance (BIAcore), and compared to Chimeric Ab and Chimeric Ab #2. BIAcore measurements were performed as follows: human CD33 was immobilized on the surface of a C1 chip, and Fabs were injected for 300 s to monitor association, followed by a 900 s flow in running buffer to monitor dissociation. The Fabs were measured at 5 concentrations: a high concentration of 27 nM and 3-fold serial dilutions.
In a separate experiment, as determined by the more sensitive BIAcore technique, affinity parameters of affinity matured antibodies derived from the humanized antibody AB-H64 were measured and were directly compared to that of the Chimeric Ab, according to the method described in Example 1 above.

human CD33 [2] = target: T1, human CD33; assay: BLI (ForteBio), Fab 100 nM on immobilized CD33
Experimental: The affinities (KD) of the humanized antibodies for human CD33 were measured for each antibody by BioLayer Interferometry in a ForteBio assay according to standard techniques (Estep et al. (2013) MAbs 5(2): 270-8). […] The assay was carried out at room temperature.
The affinities of AB-H64 and its variants (Table 5) for human CD33 were measured by Fortebio assay according to the method described in Example 1 above.

[3] = target: T2, human CD33 on primary human monocyte-derived dendritic cells (human, UniProt P20138 18-364); assay: cell-based or functional assay
T2 sequence (P20138 18-364): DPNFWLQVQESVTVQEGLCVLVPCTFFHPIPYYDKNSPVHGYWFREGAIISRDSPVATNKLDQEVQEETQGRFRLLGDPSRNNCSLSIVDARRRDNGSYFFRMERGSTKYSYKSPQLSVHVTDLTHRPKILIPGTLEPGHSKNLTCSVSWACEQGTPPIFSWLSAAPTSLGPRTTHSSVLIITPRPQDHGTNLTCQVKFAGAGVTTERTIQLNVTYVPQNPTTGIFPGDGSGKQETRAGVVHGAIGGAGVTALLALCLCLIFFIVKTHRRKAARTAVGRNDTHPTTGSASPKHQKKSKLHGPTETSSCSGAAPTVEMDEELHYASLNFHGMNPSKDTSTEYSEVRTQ

[4] = target: T2, human CD33 on primary human …; assay: cell-based or functional assay; remark: listed apart in the source

T1 sequence (P20138 18-259 limits assumed): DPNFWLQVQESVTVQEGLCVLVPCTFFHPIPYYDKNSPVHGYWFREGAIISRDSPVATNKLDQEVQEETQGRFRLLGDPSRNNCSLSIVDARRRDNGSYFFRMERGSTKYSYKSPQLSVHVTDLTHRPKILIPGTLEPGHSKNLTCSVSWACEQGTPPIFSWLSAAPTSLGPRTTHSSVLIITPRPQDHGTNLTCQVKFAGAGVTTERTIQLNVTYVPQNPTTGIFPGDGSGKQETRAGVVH

Binder	Fold Change to AB-H64 (human CD33 [1]) [fold]	Fold Change to Chimeric Ab (human CD33 [1]) [fold]	Kd (human CD33 [1]) [pM]	koff (human CD33 [1]) [s⁻¹]	kon (human CD33 [1]) [M⁻¹ s⁻¹]	Fold affinity improvement over parental Ab (AB-H64) (human CD33 [2]) [fold]	Kd (human CD33 [2]) [pM]	Receptor downregulation (EC50) [3] [pM]	Maximal Downregulation (% CD33 remaining) [4] [%]	Receptor downregulation (pM, EC50) [4] [pM]
AB-64.3 (antibody, V domains shown) VH: QVQLVQSGAEVKKPGASVKISCKASGYTFTDYNLHWVRQAPGQGLEWIGFIYPSNGITGYAEKFEGRATLTVDNSTSTAYMELSSLRSEDTAVYYCARSFVDYFDYWGQGTLLTVSS VL: DIVLTQSPDSLAVSLGERATINCRASQDVSTSTYSYMHWYQQKPGQPPKLLIKYASYLESGVPDRFSGSGSGTDFTLTISSLQAEDVAVYYCEHSWEIPLTFGQGTKLEIK	401	303	5.37	2.67e-05	4.98e+06	6.53	438	25.7	–	–
AB-64.1 huIgG1 N297A (antibody, V domains shown) VH: QVQLVQSGAEVKKPGASVKISCKASGYTFTDYNLHWVRQAPGQGLEWIGFIYPSNGITGYAQKFQGRATLTVDNSTSTAYMELSSLRSEDTAVYYCARSDVDYFDYWGQGTLLTVSS VL: DIVLTQSPDSLAVSLGERATINCRASQSVSTSTYSYMHWYQQKPGQPPKLLIKYASNLESGVPDRFSGSGSGTDFTLTISSLQAEDVAVYYCQHSWEIPLTFGQGTKLEIK	–	–	–	–	–	–	–	–	41.3	29.3
AB-64.4 (antibody, V domains shown) VH: QVQLVQSGAEVKKPGASVKISCKASGYTFTDYNLHWVRQAPGQGLEWIGFIYPSNGITGYAQKFQGRATLTVDNSTSTAYMELSSLRSEDTAVYYCARSDVDYFDYWGQGTLLTVSS VL: DIVLTQSPDSLAVSLGERATINCRASQDVSTSTYSYMHWYQQKPGQPPKLLIKYASYLESGVPDRFSGSGSGTDFTLTISSLQAEDVAVYYCEHSWEIPLTFGQGTKLEIK	586	443	3.67	1.98e-05	5.4e+06	7.95	360	23.6	–	–
AB-64.1 huIgG1 LALAPS (antibody) heavy: not shown light: DIVLTQSPDSLAVSLGERATINCRASQSVSTSTYSYMHWYQQKPGQPPKLLIKYASNLESGVPDRFSGSGSGTDFTLTISSLQAEDVAVYYCQHSWEIPLTFGQGTKLEIKRTVAAPSVFIFPPSDEQLKSGTASVVCLLNNFYPREAKVQWKVDNALQSGNSQESVTEQDSKDSTYSLSSTLTLSKADYEKHKVYACEVTHQGLSSPVTKSFNRGEC	–	–	–	–	–	–	–	–	39.4	57.1

Continued, values first:

Fold Change to AB-H64 (human CD33 [1]) [fold]	Fold Change to Chimeric Ab (human CD33 [1]) [fold]	Kd (human CD33 [1]) [pM]	koff (human CD33 [1]) [s⁻¹]	kon (human CD33 [1]) [M⁻¹ s⁻¹]	Fold affinity improvement over parental Ab (AB-H64) (human CD33 [2]) [fold]	Kd (human CD33 [2]) [pM]	Receptor downregulation (EC50) [3] [pM]	Maximal Downregulation (% CD33 remaining) [4] [%]	Receptor downregulation (pM, EC50) [4] [pM]	Binder
214	162	10.1	6.33e-05	6.3e+06	7.76	369	26.3	–	–	AB-64.5 (antibody, V domains shown) VH: QVQLVQSGAEVKKPGASVKISCKASGYTFTDYNYHWVRQAPGQGLEWIGFIYPSNGITGYAQKFFGRATLTVDNSTSTAYMELSSLRSEDTAVYYCARSDVDYFDYWGQGTLLTVSS VL: DIVLTQSPDSLAVSLGERATINCRASQSVGTSTYSYMHWYQQKPGQPPKLLIKYASNLESGVPDRFSGSGSGTDFTLTISSLQAEDVAVYYCQHSWEIPLTFGQGTKLEIK
321	242	6.71	4.8e-05	7.15e+06	10.3	277	27.2	–	–	AB-64.8 (antibody, V domains shown) VH: QVQLVQSGAEVKKPGASVKISCKASGYTFTDYNYHWVRQAPGQGLEWIGFIYPSNGITGYAQKFQHRATLTVDNSTSTAYMELSSLRSEDTAVYYCARSDVDYFDYWGQGTLLTVSS VL: DIVLTQSPDSLAVSLGERATINCRASQDVSTSTYSYMHWYQQKPGQPPKLLIKYASNLESGVPDRFSGSGSGTDFTLTISSLQAEDVAVYYCQHSWEIPLTFGQGTKLEIK

Source: patent US20210139581A1 (Alector, published 2021)
